Reference: US20200264182A1, “METHOD FOR DETECTING PROSTATE CANCER” (J-OIL MILLS, INC., priority 2017, published 2020)

Legend:
[1] = biological target: serum fucosylated PSA (prostate specific antigen) (human) (UniProt P07288); experiment: sandwich ELISA, anti-PSA antibody capture, biotin-lectin detection, pH 9.6; serum of Healthy 1
[2] = biological target: serum fucosylated PSA (prostate specific antigen) (human) (UniProt P07288); experiment: sandwich ELISA, anti-PSA antibody capture, biotin-lectin detection, pH 9.6; serum of Healthy 2
[3] = biological target: serum fucosylated PSA (prostate specific antigen) (human) (UniProt P07288); experiment: sandwich ELISA, anti-PSA antibody capture, biotin-lectin detection, pH 9.6; serum of Healthy 3
[4] = biological target: serum fucosylated PSA (prostate specific antigen) (human) (UniProt P07288); experiment: sandwich ELISA, anti-PSA antibody capture, biotin-lectin detection, pH 9.6; serum of Healthy 4
[5] = biological target: serum fucosylated PSA (prostate specific antigen) (human) (UniProt P07288); experiment: sandwich ELISA, anti-PSA antibody capture, biotin-lectin detection, pH 9.6; serum of Healthy 5
[6] = biological target: serum fucosylated PSA (prostate specific antigen) (human) (UniProt P07288); experiment: sandwich ELISA, anti-PSA antibody capture, biotin-lectin detection, pH 9.6; serum of Healthy 6
[7] = biological target: serum fucosylated PSA (prostate specific antigen) (human) (UniProt P07288); experiment: sandwich ELISA, anti-PSA antibody capture, biotin-lectin detection, pH 9.6; serum of Healthy 7
[8] = biological target: serum fucosylated PSA (prostate specific antigen) (human) (UniProt P07288); experiment: sandwich ELISA, anti-PSA antibody capture, biotin-lectin detection, pH 9.6; sera of subgroup GS6, n=2
[9] = biological target: serum fucosylated PSA (prostate specific antigen) (human) (UniProt P07288); experiment: sandwich ELISA, anti-PSA antibody capture, biotin-lectin detection, pH 9.6; sera of subgroup GS7, n=2
[10] = biological target: serum fucosylated PSA (prostate specific antigen) (human) (UniProt P07288); experiment: sandwich ELISA, anti-PSA antibody capture, biotin-lectin detection, pH 9.6; serum of Prostate cancer 1 (GS 4)
[11] = biological target: serum fucosylated PSA (prostate specific antigen) (human) (UniProt P07288); experiment: sandwich ELISA, anti-PSA antibody capture, biotin-lectin detection, pH 9.6; serum of Prostate cancer 2 (GS 5)
[12] = biological target: serum fucosylated PSA (prostate specific antigen) (human) (UniProt P07288); experiment: sandwich ELISA, anti-PSA antibody capture, biotin-lectin detection, pH 9.6; serum of Prostate cancer 3 (GS 6)
[13] = biological target: serum fucosylated PSA (prostate specific antigen) (human) (UniProt P07288); experiment: sandwich ELISA, anti-PSA antibody capture, biotin-lectin detection, pH 9.6; serum of Prostate cancer 4 (GS 6)
[14] = biological target: serum fucosylated PSA (prostate specific antigen) (human) (UniProt P07288); experiment: sandwich ELISA, anti-PSA antibody capture, biotin-lectin detection, pH 9.6; serum of Prostate cancer 5 (GS 7)
[15] = biological target: serum fucosylated PSA (prostate specific antigen) (human) (UniProt P07288); experiment: sandwich ELISA, anti-PSA antibody capture, biotin-lectin detection, pH 9.6; serum of Prostate cancer 6 (GS 7)
[16] = biological target: serum fucosylated PSA (prostate specific antigen) (human) (UniProt P07288); experiment: sandwich ELISA, anti-PSA antibody capture, biotin-lectin detection, pH 9.6; serum of Prostate cancer 7 (GS 8)
[17] = biological target: serum fucosylated PSA (prostate specific antigen) (human) (UniProt P07288); experiment: sandwich ELISA, anti-PSA antibody capture, biotin-lectin detection, pH 9.6; serum of Prostate cancer 8 (GS 8)
[18] = biological target: serum fucosylated PSA (prostate specific antigen) (human) (UniProt P07288); experiment: sandwich ELISA, anti-PSA antibody capture, biotin-lectin detection, pH 9.6; serum of Prostate cancer 9 (GS 8)
[19] = biological target: serum fucosylated PSA (prostate specific antigen) (human) (UniProt P07288); experiment: sandwich ELISA, anti-PSA antibody capture, biotin-lectin detection, pH 9.6; sera of subgroup GS8 or more, n=3
[20] = biological target: serum fucosylated PSA (prostate specific antigen) (human) (UniProt P07288); experiment: sandwich ELISA, anti-PSA antibody capture, biotin-lectin detection, lectin reaction pH 7.4; serum of Healthy 1
[21] = biological target: serum fucosylated PSA (prostate specific antigen) (human) (UniProt P07288); experiment: sandwich ELISA, anti-PSA antibody capture, biotin-lectin detection, lectin reaction pH 9.6; serum of Healthy 1
[22] = biological target: serum fucosylated PSA (prostate specific antigen) (human) (UniProt P07288); experiment: sandwich ELISA, anti-PSA antibody capture, biotin-lectin detection, pH 9.6; subject samples B, subgroup GS6, n=9
[23] = biological target: serum fucosylated PSA (prostate specific antigen) (human) (UniProt P07288); experiment: sandwich ELISA, anti-PSA antibody capture, biotin-lectin detection, pH 9.6; subject samples B, subgroup GS7, n=11
[24] = biological target: serum fucosylated PSA (prostate specific antigen) (human) (UniProt P07288); experiment: sandwich ELISA, anti-PSA antibody capture, biotin-lectin detection, pH 9.6; sera of the healthy person group (n=7)
[25] = biological target: serum fucosylated PSA (prostate specific antigen) (human) (UniProt P07288); experiment: sandwich ELISA, anti-PSA antibody capture, biotin-lectin detection, pH 9.6; subject samples B, subgroup GS8-9, n=6
[26] = biological target: serum fucosylated PSA (prostate specific antigen) (human) (UniProt P07288); experiment: sandwich ELISA, anti-PSA antibody capture, biotin-lectin detection, pH 9.6; subject samples B, subgroup Negative, n=9
[27] = biological target: serum fucosylated PSA (prostate specific antigen) (human) (UniProt P07288); experiment: sandwich ELISA, anti-PSA antibody capture, biotin-lectin detection, pH 9.6; sera of subgroup Negative (GS5 or less), n=2
[28] = biological target: serum fucosylated PSA (prostate specific antigen) (human) (UniProt P07288); experiment: sandwich ELISA, anti-PSA antibody capture, biotin-lectin detection, pH 9.6; sera of the prostate cancer patient group (n=9)
[29] = biological target: serum fucosylated PSA (prostate specific antigen) (human) (UniProt P07288); experiment: sandwich ELISA, anti-PSA antibody capture, biotin-lectin detection, lectin reaction pH 7.4; serum of Prostate cancer 4 (GS6)
[30] = biological target: serum fucosylated PSA (prostate specific antigen) (human) (UniProt P07288); experiment: sandwich ELISA, anti-PSA antibody capture, biotin-lectin detection, lectin reaction pH 9.6; serum of Prostate cancer 4 (GS6)

## Pholiota squarrosa lectin (PhoSL), biotin-labeled
[1]
  PhoSL reaction value: 51.9 U/mL
[2]
  PhoSL reaction value: 55.9 U/mL
[3]
  PhoSL reaction value: 63.9 U/mL
[4]
  PhoSL reaction value: 74.9 U/mL
[5]
  PhoSL reaction value: 55.8 U/mL
[6]
  PhoSL reaction value: 39.7 U/mL
[7]
  PhoSL reaction value: 59 U/mL
[8]
  PhoSL reaction value (mean value): 142 U/mL
  PhoSL reaction value (median value): 142 U/mL
[9]
  PhoSL reaction value (mean value): 142 U/mL
  PhoSL reaction value (median value): 142 U/mL
[10]
  PhoSL reaction value: 116 U/mL
[11]
  PhoSL reaction value: 117 U/mL
[12]
  PhoSL reaction value: 104 U/mL
[13]
  PhoSL reaction value: 179 U/mL
[14]
  PhoSL reaction value: 116 U/mL
[15]
  PhoSL reaction value: 168 U/mL
[16]
  PhoSL reaction value: 126 U/mL
[17]
  PhoSL reaction value: 130 U/mL
[18]
  PhoSL reaction value: 251 U/mL
[19]
  PhoSL reaction value (mean value): 130 U/mL
  PhoSL reaction value (median value): 169 U/mL
[20]
  PhoSL reaction value: 35.8 U/mL
[21]
  PhoSL reaction value: 51.9 U/mL
[22]
  PhoSL reaction value (mean value): 182 U/mL
  PhoSL reaction value (median value): 189 U/mL
[23]
  PhoSL reaction value (mean value): 120 U/mL
  PhoSL reaction value (median value): 211 U/mL
[24]
  PhoSL reaction value (average value): 57.3 U/mL
  PhoSL reaction value (median value): 55.9 U/mL
[25]
  PhoSL reaction value (mean value): 233 U/mL
  PhoSL reaction value (median value): 240 U/mL
[26]
  PhoSL reaction value (mean value): 204 U/mL
  PhoSL reaction value (median value): 178 U/mL
[27]
  PhoSL reaction value (mean value): 116 U/mL
  PhoSL reaction value (median value): 116 U/mL
[28]
  PhoSL reaction value (average value): 145 U/mL
  PhoSL reaction value (median value): 126 U/mL
[29]
  PhoSL reaction value: 108 U/mL
[30]
  PhoSL reaction value: 179 U/mL
